Results taken from publication PMC5426795, “Controlling transferrin receptor trafficking with GPI-valence in bloodstream stage African trypanosomes” (PLoS Pathogens, 2017).

Legend:
Assay in all cases: native gel or EMSA; BN-PAGE (4-16% gradient) of 1% dodecylmaltoside extracts of cell lines cultured 24 hr with tetracycline, without or with 4 M urea; immunoblot with anti-TfR or anti-VSG221
[1] = molecular target: ESAG7, subunit of the transferrin receptor (TfR) without GPI anchor (T. brucei brucei (Lister 427))
[2] = molecular target: ESAG6, GPI-anchored subunit of the transferrin receptor (TfR) (T. brucei brucei (Lister 427))
[3] = molecular target: the molecule itself

ESAG7, subunit of the transferrin receptor (TfR) without GPI anchor (natural protein)
stoichiometry N [1]: 2

ESAG6, GPI-anchored subunit of the transferrin receptor (TfR) (natural protein)
stoichiometry N [2]: 2

B1: variant surface glycoprotein VSG221 (MITat1.2) (natural protein)
chain: AAEKGFKQAFWQPLCQVSEELDDQPKGALFTLQAAASKIQKMRDAALRASIYAEINHGTNRAKAAVIVANHYAMKADSGLEALKQTLSSQEVTATATASYLKGRIDEYLNLLLQTKESGTSGCMMDTSGTNTVTKAGGTIGGVPCKLQLSPIQPKRPAATYLGKAGYVGLTRQADAANNFHDNDAECRLASGHNTNGLGKSGQLSAAVTMAAGYVTVANSQTAVTVQALDALQEASGAAHQPWIDAWKAKKALTGAETAEFRNETAGIAGKTGVTKLVEEALLKKKDSEASEIQTELKKYFSGHENEQWTAIEKLISEQPVAQNLVGDNQPTKLGELEGNAKLTTILAYYRMETAGKFEVLTQKHKPAESQQQAAETEGSCNKKDQNECKSPCKWHNDAENKKCTLDKEEAKKVADETAKDGKTGNTNTTGSS
modifications: GPI anchor, C-terminal
notes: variant surface glycoprotein VSG221 of MITat1.2, T. brucei brucei Lister 427; Internal control of the BN-PAGE; also called dVSG; mVSG; source: endogenous, bloodstream form T. brucei brucei Lister 427 (MITat1.2), dodecylmaltoside extract
stoichiometry N [3]: 2
